Sequences and labels used below:
T1: human FcγRIIb extracellular domain with C-terminal His-tag (human, UniProt P31994 43-217)
T1 construct: also called human FcgRIIb; not shown: His-tag added to C-terminus
T1 sequence: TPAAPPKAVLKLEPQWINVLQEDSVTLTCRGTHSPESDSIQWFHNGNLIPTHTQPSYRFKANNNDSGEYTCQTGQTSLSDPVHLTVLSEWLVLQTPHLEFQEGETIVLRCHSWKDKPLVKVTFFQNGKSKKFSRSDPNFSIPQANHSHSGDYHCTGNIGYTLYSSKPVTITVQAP

T2: cynomolgus monkey FcγRIIa3 extracellular domain with C-terminal His-tag (cynomolgus monkey)
T2 construct: also called cyno FcgRIIa3; cynoFcγRIIa3; not shown: His-tag added to the C-terminus
T2 chain: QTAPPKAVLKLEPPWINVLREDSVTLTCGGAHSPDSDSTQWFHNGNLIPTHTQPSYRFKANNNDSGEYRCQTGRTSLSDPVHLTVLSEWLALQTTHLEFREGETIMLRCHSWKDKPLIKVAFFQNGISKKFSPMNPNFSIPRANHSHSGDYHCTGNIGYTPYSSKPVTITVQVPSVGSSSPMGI

T3: cynomolgus monkey FcγRIIa1 extracellular domain, His-tagged (cynomolgus monkey)
T3 construct: also called cyno FcgRIIa1
T3 chain: T2 chain with T95P, A121T, S128A, P133H, N135D

T4: cynomolgus monkey FcγRIIa2 extracellular domain, His-tagged (cynomolgus monkey)
T4 construct: also called cyno FcgRIIa2
T4 chain: T2 chain with I127K, K130N, P133H, R142Q

T5: cynomolgus monkey FcγRIIa3 extracellular domain, His-tagged (cynomolgus monkey)
T5 construct: also called cyno FcgRIIa3
T5 chain: T2 chain

T6: cynomolgus monkey FcγRIIb extracellular domain, His-tagged (cynomolgus monkey)
T6 construct: also called cyno FcgRIIb
T6 chain: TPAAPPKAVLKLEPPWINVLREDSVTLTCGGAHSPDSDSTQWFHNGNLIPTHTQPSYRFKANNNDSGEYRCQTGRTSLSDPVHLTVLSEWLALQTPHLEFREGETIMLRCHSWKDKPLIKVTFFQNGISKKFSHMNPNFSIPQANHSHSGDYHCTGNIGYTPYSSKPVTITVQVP

T7: cynomolgus monkey FcγRIIIaS extracellular domain, His-tagged (cynomolgus monkey, UniProt Q8SPW2 21-206 at identity 1.00))
T7 construct: also called cyno FcgRIIIaS
T7 chain: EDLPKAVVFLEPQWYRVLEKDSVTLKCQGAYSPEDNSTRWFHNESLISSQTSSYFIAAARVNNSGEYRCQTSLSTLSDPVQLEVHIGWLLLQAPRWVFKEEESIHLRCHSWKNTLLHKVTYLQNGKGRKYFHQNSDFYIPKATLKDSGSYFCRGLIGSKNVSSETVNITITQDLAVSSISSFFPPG

B1: M103205H795-MY205/M103202L889-SK1 (antibody, human IgG1, kappa)
heavy: QVTLKESGPVLVKPTETLTLTCTVSGIDLSHDDISWVRQAPGKGLEWVGIISYAGSTYYASWAKGRLTISKDTSKNQVVLTMTNMDPVDTATYYCARGVPAYSHGGDLWGQGTLVTVSSASTKGPSVFPLAPSSKSTSGGTAALGCLVKDYFPEPVTVSWNSGALTSGVHTFPAVLQSSGLYSLSSVVTVPSSSLGTQTYICNVNHKPSNTKVDKKVEPKSCDKTHTCPPCPAPELLNGPSVFLFPPKPKDTLMISRTPEVTCVVVDVSDEDPEVKFNWYVDGVEVHNAKTKPREELYNSTYRVVSVLTVLHQDWLNGKEYKCKVSNKALPKPIEKTISKAKGQPREPQVYTLPPSREEMTKNQVSLTCLVKGFYPSDIAVEWESNGQPENNYKTTPPVLDSDGSFFLYSKLTVDKSRWQQGNVFSCSVMHEALHNHYTQKSLSLSP
light: DIVMTQSPATLSLSPGERATLSCTSSQSVYHANWLSWFQQKPGQPPKLLIYWASTLAYGVPSRFSGSGSGTDFTLTISSLQPEDAATYYCAGGYGGGRYAFGQGTKVEIKRTVAAPSVFIFPPSDEQLKSGTASVVCLLNNFYPREAKVQWKVDNALQSGNSQESVTEQDSKDSTYSLSSTLTLSKADYEKHKVYACEVTHQGLSSPVTKSFNRGEC
notes: also called MS1032LO06-MY205
B2: M103205H795-MY201/M103202L889-SK1 (antibody, human IgG1, kappa)
heavy: B1 heavy with L297Q
light: B1 light
notes: also called MS1032LO06-MY201
B3: M103205H795-MY201/M103202L889-SK1 (antibody, human IgG1, kappa)
heavy: B1 heavy with L297Q
light: B1 light
notes: Fc variant of MS1032LO06-SG1; also called MS1032LO06-MY201
B4: M103205H795-SG167 / M103202L889-SK1 (antibody, human IgG1, kappa, name in EU numbering)
heavy: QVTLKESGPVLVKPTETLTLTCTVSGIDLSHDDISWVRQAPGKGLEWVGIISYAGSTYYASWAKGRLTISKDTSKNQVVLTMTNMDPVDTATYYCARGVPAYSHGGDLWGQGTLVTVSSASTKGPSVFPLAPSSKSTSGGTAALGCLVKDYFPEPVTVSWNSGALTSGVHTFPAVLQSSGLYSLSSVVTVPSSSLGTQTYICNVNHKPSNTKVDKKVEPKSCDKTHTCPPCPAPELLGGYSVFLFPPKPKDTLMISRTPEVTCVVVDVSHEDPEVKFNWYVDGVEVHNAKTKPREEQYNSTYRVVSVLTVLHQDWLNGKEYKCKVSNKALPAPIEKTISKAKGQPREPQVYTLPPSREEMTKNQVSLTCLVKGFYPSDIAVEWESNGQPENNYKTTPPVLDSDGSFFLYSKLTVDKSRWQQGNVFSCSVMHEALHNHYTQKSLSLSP
light: B1 light
notes: also called P238Y
B5: M103205H795-SG175 / M103202L889-SK1 (antibody, human IgG1, kappa, name in EU numbering)
heavy: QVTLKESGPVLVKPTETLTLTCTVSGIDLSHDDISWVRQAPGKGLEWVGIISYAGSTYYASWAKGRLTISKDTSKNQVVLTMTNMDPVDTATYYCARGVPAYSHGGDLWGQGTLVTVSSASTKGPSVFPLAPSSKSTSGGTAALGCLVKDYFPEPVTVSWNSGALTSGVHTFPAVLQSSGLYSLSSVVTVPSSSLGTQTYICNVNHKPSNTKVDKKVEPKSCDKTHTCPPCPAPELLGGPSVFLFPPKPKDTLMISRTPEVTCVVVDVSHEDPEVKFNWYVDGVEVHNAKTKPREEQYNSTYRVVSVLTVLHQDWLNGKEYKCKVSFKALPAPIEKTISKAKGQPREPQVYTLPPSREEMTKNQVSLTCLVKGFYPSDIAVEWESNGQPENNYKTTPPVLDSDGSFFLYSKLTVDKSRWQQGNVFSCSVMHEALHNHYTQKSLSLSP
light: B1 light
notes: also called N325F
B6: M103205H795-SG166 / M103202L889-SK1 (antibody, human IgG1, kappa, name in EU numbering)
heavy: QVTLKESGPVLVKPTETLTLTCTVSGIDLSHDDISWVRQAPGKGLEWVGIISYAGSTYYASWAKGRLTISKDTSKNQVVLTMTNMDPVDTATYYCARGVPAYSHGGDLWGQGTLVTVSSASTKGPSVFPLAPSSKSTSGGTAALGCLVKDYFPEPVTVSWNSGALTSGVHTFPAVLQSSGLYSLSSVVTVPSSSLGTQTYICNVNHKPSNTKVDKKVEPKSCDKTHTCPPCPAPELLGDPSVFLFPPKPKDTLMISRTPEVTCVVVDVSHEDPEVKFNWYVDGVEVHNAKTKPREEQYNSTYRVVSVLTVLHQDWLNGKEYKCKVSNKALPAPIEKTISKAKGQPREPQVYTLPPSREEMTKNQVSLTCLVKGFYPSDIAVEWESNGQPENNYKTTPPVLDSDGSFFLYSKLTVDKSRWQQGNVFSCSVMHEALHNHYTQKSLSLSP
light: B1 light
notes: also called G237D
B7: M103205H795-SG165 / M103202L889-SK1 (antibody, human IgG1, kappa, name in EU numbering)
heavy: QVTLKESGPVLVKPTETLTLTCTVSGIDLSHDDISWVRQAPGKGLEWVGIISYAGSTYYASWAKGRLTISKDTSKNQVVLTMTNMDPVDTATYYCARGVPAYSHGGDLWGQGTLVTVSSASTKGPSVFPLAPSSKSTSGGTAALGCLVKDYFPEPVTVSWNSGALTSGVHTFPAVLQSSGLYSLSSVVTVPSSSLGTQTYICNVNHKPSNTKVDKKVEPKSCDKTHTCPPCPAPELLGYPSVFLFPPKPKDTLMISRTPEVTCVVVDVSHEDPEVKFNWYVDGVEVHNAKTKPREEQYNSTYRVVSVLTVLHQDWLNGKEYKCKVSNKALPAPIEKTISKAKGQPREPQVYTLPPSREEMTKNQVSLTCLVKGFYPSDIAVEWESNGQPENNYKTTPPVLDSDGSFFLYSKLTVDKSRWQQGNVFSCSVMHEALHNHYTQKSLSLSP
light: B1 light
notes: also called G237Y
B8: M103205H795-SG171 / M103202L889-SK1 (antibody, human IgG1, kappa, name in EU numbering)
heavy: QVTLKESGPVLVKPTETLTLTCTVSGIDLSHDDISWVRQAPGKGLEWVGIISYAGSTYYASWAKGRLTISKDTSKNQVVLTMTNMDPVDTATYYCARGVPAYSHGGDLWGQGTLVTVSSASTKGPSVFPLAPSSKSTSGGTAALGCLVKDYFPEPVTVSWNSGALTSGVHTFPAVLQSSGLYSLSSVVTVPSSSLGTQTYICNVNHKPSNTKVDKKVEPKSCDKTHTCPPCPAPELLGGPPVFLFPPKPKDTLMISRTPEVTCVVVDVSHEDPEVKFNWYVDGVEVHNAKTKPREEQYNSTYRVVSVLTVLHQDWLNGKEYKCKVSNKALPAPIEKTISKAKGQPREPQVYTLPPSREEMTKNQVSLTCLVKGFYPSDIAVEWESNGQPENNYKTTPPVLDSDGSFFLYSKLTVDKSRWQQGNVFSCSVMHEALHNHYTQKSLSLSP
light: B1 light
notes: also called S239P
B9: M103205H795-MY001 / M103202L889-SK1 (antibody, human IgG1, kappa, name in EU numbering)
heavy: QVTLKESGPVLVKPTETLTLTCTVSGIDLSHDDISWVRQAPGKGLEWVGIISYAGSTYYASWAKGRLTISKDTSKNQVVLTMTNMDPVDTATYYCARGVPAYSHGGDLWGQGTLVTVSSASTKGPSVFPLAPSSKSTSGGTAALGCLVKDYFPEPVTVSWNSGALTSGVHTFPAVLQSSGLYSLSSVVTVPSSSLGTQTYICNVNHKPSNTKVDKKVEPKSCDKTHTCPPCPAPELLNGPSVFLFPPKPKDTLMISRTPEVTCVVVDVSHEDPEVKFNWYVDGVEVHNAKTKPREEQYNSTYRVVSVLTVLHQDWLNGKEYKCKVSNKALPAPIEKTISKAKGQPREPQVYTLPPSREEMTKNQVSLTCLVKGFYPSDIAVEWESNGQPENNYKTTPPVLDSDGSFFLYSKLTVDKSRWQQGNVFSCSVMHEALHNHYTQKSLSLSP
light: B1 light
notes: also called G236N

By Kd is commonly meant a measure of binding affinity in units of concentration.

Numbering of substitutions follows the chain as printed. Names and notes keep the numbering of the source.

One assay deals with T8, cynomolgus monkey FcγRIIIaS extracellular domain with C-terminal His-tag (cynomolgus monkey, UniProt A3RFZ7 21-206 (rhesus entry)).
T8 construct: also called cyno FcgRIIIaS; cynoFcγRIIIaS; not shown: His-tag added to C-terminus
The assay can be described thus: SPR Biacore, antibody captured, FcgR analyte. As to the method: (§1) The kinetic analysis of interactions between these antibodies and FcγR was carried out using BIACORE® T200 or BIACORE® 4000 (GE Healthcare). HBS-EP+ (GE Healthcare) was used as the running buffer, and the measurement temperature was set to 25° C. […] After the measurement, the antibody captured on the chip was washed off by allowing reaction with 10 mM glycine-HCl, pH1.5 and 25 mM NaOH so that the chip was regenerated and used repeatedly. The sensorgrams obtained as measurement results were analyzed by the 1:1 Langmuir binding model using the BIACORE® Evaluation Software to calculate the binding rate constant ka (L/mol/s) and dissociation rate constant kd (1/s), and the dissociation constant KD (mol/L) was calculated from these values. […] Regarding such interactions, KD values were calculated using the following 1:1 binding model described in BIACORE® T100 Software Handbook BR1006-48 Edition AE.
Background: SPR reads the build-up and loss of mass on a sensor chip optically.
In the case of B1, the “KD fold (SG1 = 1)” value is 0.08 fold.

The target in the next assay is T1, human FcγRIIb extracellular domain with …. The assay can be described thus: SPR Biacore, antibody captured, FcgR analyte. As for the experimental part: as §1
On to B2, for which the “KD fold (SG1 = 1)” value amounted to 4.7 fold.
The same measure, in the same setting: the value for B1 was 8.7 fold.

The target in a further assay is T2, cynomolgus monkey FcγRIIa3 …. Kind of assay: SPR (BIACORE), antibody captured, FcgR analyte. As for the experimental part: as §1
In the case of B3, binding was put at a Kd of 5.9 µM.

A further assay addresses T3, cynomolgus monkey FcγRIIa1 …. Kind of assay: SPR (Biacore), 25C, FcgR bound per antibody captured. As for the experimental part: (§2) In the next step, cross-reactivity of these substitutions to cynoFcγRs was evaluated.
(§3) The value of the amount of FcγR binding was obtained by dividing the amount of FcγR bound by the amount of each antibody captured.
As to B4, the “Binding to cynoFcgRs (SG1 = 100)” value was 18.
Same read-out and setting: the same measure for B5: 13; for B6: 10; for B7: 18.
Still for that read-out and setting: the same measure for B8: 17; for B9: 83.

In another assay the target is T4, cynomolgus monkey FcγRIIa2 …. The description is as above. As for the experimental part: as §2, §3
For the molecule B4, the “Binding to cynoFcgRs (SG1 = 100)” value amounted to 14.
The same measure, in the same setting: the value for B5 was 13; that for B6 was 10; that for B7 was 17.
Same read-out and setting: the value for B8 was 20; that for B9 was 86.

The next assay deals with T5, cynomolgus monkey FcγRIIa3 …. Described as above. As to the method:
as §2, §3
As to B4, the “Binding to cynoFcgRs (SG1 = 100)” value amounted to 38.
On the same count and under the same terms, the same measure for B5: 17; for B6: 17; for B7: 30.
On the same count and under the same terms, the same measure for B8: 18.
B9: the “Binding to cynoFcgRs (SG1 = 100)” value amounted to 62.

The next assay addresses T6, cynomolgus monkey FcγRIIb extracellular …. The description is as above. As for the experimental part: as §2, §3
B4: the “Binding to cynoFcgRs (SG1 = 100)” value turned out to be 22.
On to B5, for which the “Binding to cynoFcgRs (SG1 = 100)” value was 14.
On the same count and under the same terms, the same measure for B7: 30; for B8: 20; for B9: 85.

For the next assay, the target named is T7, cynomolgus monkey FcγRIIIaS …. Described as above. As to the method:
as §2, §3
For the molecule B4, the “Binding to cynoFcgRs (SG1 = 100)” value came to 14.
B6: the “Binding to cynoFcgRs (SG1 = 100)” value came to 5.
Still for that read-out and setting: the value for B7 was 7.
Still for that read-out and setting: the same measure for B9: 15.
